Patent US20140271457A1 (AbbVie / Abbott, published 2014)
Where a chain is given by its changes, count along the chain named.

Key:
[1] = target: Recombinant Human TNF-α/TNFSF1A (human, UniProt P01375 77-233); experiment: cell-based or functional assay
Recombinant Human β-NGF = Recombinant Human β-NGF (human, UniProt P01138 122-241); experiment: cell-based or functional assay
Recombinant Human β-NGF, sequence (P01138 122-241 limits assumed): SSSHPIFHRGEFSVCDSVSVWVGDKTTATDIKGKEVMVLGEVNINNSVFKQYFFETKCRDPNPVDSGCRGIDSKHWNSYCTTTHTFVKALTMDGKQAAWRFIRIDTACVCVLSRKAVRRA

Recombinant Human TNF-α/TNFSF1A, sequence (P01375 77-233 limits assumed): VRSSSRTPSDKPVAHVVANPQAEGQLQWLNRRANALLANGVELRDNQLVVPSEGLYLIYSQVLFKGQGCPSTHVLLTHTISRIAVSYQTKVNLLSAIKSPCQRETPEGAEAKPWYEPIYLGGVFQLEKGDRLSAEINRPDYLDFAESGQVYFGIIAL

B1: DVD2772 (bispecific antibody, IgG1)
VH: EVQLVESGGGLVQPGGSLRLSCAASGFSLTNNNVNWVRQAPGKGLEWVGGVWAGGATDYNSALKSRFTISRDNSKNTAYLQMNSLRAEDTAVYYCARDGGYSSSTLYAMDAWGQGTLVTVSSASTKGPSVFPLAPEVQLVESGGGLVQPGGSLRLSCAASGFTFSNYGVEWVRQAPGKGLEWVSGIWADGSTHYADTVKSRFTISRDNSKNTLYLQMNSLRAEDTAVYYCAREWQHGPVAYWGQGTLVTVSS
VL: DIQMTQSPSSLSASVGDRVTITCRASEDIYNALAWYQQKPGKAPKLLIYNTDTLHTGVPSRFSGSGSGTDYTLTISSLQPEDFATYFCQHYFHYPRTFGQGTKVEIKRTVAAPDIQMTQSPSSLSASVGDRVTITCKASQLVSSAVAWYQQKPGKAPKLLIYWASTLHTGVPSRFSGSGSGTDFTLTISSLQPEDFATYYCQQHYRTPFTFGQGTKLEIKR
C-Terminal VD huTNFα Neutralization Assay IC50 [1]: 0.128 nM
N-Terminal VD NGF Neutralization Assay IC50 (Recombinant Human β-NGF): 40 pM

B2: DVD2818 (bispecific antibody, IgG1)
VH: EVQLVESGGGLVQPGGSLRLSCAASGFSLTNNNVNWVRQAPGKGLEWVGGVWAGGATDYNSALKSRFTISRDNSKNTAYLQMNSLRAEDTAVYYCARDGGYSSSTLYAMDAWGQGTLVTVSSGGGGSGGGGSEVQLVQSGAEVKKPGASVKVSCKASGYTFANYGIIWVRQAPGQGLEWMGWINTYTGKPTYAQKFQGRVTMTTDTSTSTAYMELSSLRSEDTAVYYCARKLFTTMDVTDNAMDYWGQGTTVTVSS
VL: DIQMTQSPSSLSASVGDRVTITCRASEDIYNALAWYQQKPGKAPKLLIYNTDTLHTGVPSRFSGSGSGTDYTLTISSLQPEDFATYFCQHYFHYPRTFGQGTKVEIKRGGSGGGGSGDIQMTQSPSSLSASVGDRVTITCRASQDISQYLNWYQQKPGKAPKLLIYYTSRLQSGVPSRFSGSGSGTDFTLTISSLQPEDFATYFCQQGNTWPPTFGQGTKLEIKR
C-Terminal VD huTNFα Neutralization Assay IC50 [1]: 0.072 nM
N-Terminal VD NGF Neutralization Assay IC50 (Recombinant Human β-NGF): 3 pM

B3: DVD2814 (bispecific antibody, IgG1)
VH: EVQLVQSGAEVKKPGASVKVSCKASGYTFANYGIIWVRQAPGQGLEWMGWINTYTGKPTYAQKFQGRVTMTTDTSTSTAYMELSSLRSEDTAVYYCARKLFTTMDVTDNAMDYWGQGTTVTVSSASTKGPEVQLVESGGGLVQPGGSLRLSCAASGFSLTNNNVNWVRQAPGKGLEWVGGVWAGGATDYNSALKSRFTISRDNSKNTAYLQMNSLRAEDTAVYYCARDGGYSSSTLYAMDAWGQGTLVTVSS
VL: DIQMTQSPSSLSASVGDRVTITCRASQDISQYLNWYQQKPGKAPKLLIYYTSRLQSGVPSRFSGSGSGTDFTLTISSLQPEDFATYFCQQGNTWPPTFGQGTKLEIKRTVAAPDIQMTQSPSSLSASVGDRVTITCRASEDIYNALAWYQQKPGKAPKLLIYNTDTLHTGVPSRFSGSGSGTDYTLTISSLQPEDFATYFCQHYFHYPRTFGQGTKVEIKR
N-Terminal VD huTNFα Neutralization Assay IC50 [1]: 0.012 nM
C-Terminal VD NGF Neutralization Assay IC50 (Recombinant Human β-NGF): 0.019 nM

B4: DVD3039 (bispecific antibody, IgG1)
VH: B3 VH with A30N, T102N, M104V, D105A
VL: B3 VL with S30E, Q31N, W94Q
N-Terminal VD huTNFα Neutralization Assay IC50 [1]: 0.012 nM
C-Terminal VD NGF Neutralization Assay IC50 (Recombinant Human β-NGF): 0.088 nM

B5: DVD3041 (bispecific antibody, IgG1)
VH: B3 VH with A30N, T102N, M104V, D105A
VL: DIQMTQSPSSLSASVGDRVTITCRASQDIENYLNWYQQKPGKAPKLLIYYTSRLQSGVPSRFSGSGSGTDFTLTISSLQPEDFATYFCQQGNTQPPTFGQGTKLEIKRTVAAPSVFIFPPDIQMTQSPSSLSASVGDRVTITCRASEDIYNALAWYQQKPGKAPKLLIYNTDTLHTGVPSRFSGSGSGTDYTLTISSLQPEDFATYFCQHYFHYPRTFGQGTKVEIKR
N-Terminal VD huTNFα Neutralization Assay IC50 [1]: 0.006 nM
C-Terminal VD NGF Neutralization Assay IC50 (Recombinant Human β-NGF): > 10 nM

B6: DVD2816 (bispecific antibody, IgG1)
VH: B3 VH
VL: B5 VL with E30S, N31Q, Q94W
N-Terminal VD huTNFα Neutralization Assay IC50 [1]: 0.009 nM
C-Terminal VD NGF Neutralization Assay IC50 (Recombinant Human β-NGF): 2.89 nM

B7: DVD2817 (bispecific antibody, IgG1)
VH: EVQLVQSGAEVKKPGASVKVSCKASGYTFANYGIIWVRQAPGQGLEWMGWINTYTGKPTYAQKFQGRVTMTTDTSTSTAYMELSSLRSEDTAVYYCARKLFTTMDVTDNAMDYWGQGTTVTVSSASTKGPSVFPLAPEVQLVESGGGLVQPGGSLRLSCAASGFSLTNNNVNWVRQAPGKGLEWVGGVWAGGATDYNSALKSRFTISRDNSKNTAYLQMNSLRAEDTAVYYCARDGGYSSSTLYAMDAWGQGTLVTVSS
VL: B3 VL
N-Terminal VD huTNFα Neutralization Assay IC50 [1]: 0.013 nM
C-Terminal VD NGF Neutralization Assay IC50 (Recombinant Human β-NGF): 1.27 nM

B8: DVD2819 (bispecific antibody, IgG1)
VH: EVQLVESGGGLVQPGGSLRLSCAASGFSLTNNNVNWVRQAPGKGLEWVGGVWAGGATDYNSALKSRFTISRDNSKNTAYLQMNSLRAEDTAVYYCARDGGYSSSTLYAMDAWGQGTLVTVSSASTKGPEVQLVQSGAEVKKPGASVKVSCKASGYTFANYGIIWVRQAPGQGLEWMGWINTYTGKPTYAQKFQGRVTMTTDTSTSTAYMELSSLRSEDTAVYYCARKLFTTMDVTDNAMDYWGQGTTVTVSS
VL: DIQMTQSPSSLSASVGDRVTITCRASEDIYNALAWYQQKPGKAPKLLIYNTDTLHTGVPSRFSGSGSGTDYTLTISSLQPEDFATYFCQHYFHYPRTFGQGTKVEIKRTVAAPDIQMTQSPSSLSASVGDRVTITCRASQDISQYLNWYQQKPGKAPKLLIYYTSRLQSGVPSRFSGSGSGTDFTLTISSLQPEDFATYFCQQGNTWPPTFGQGTKLEIKR
C-Terminal VD huTNFα Neutralization Assay IC50 [1]: 0.279 nM
N-Terminal VD NGF Neutralization Assay IC50 (Recombinant Human β-NGF): 6 pM

B9: DVD2822 (bispecific antibody, IgG1)
VH: EVQLVESGGGLVQPGGSLRLSCAASGFSLTNNNVNWVRQAPGKGLEWVGGVWAGGATDYNSALKSRFTISRDNSKNTAYLQMNSLRAEDTAVYYCARDGGYSSSTLYAMDAWGQGTLVTVSSASTKGPSVFPLAPEVQLVQSGAEVKKPGASVKVSCKASGYTFANYGIIWVRQAPGQGLEWMGWINTYTGKPTYAQKFQGRVTMTTDTSTSTAYMELSSLRSEDTAVYYCARKLFTTMDVTDNAMDYWGQGTTVTVSS
VL: B8 VL
C-Terminal VD huTNFα Neutralization Assay IC50 [1]: 0.107 nM
N-Terminal VD NGF Neutralization Assay IC50 (Recombinant Human β-NGF): 3 pM

B10: DVD2821 (bispecific antibody, IgG1)
VH: B8 VH
VL: DIQMTQSPSSLSASVGDRVTITCRASEDIYNALAWYQQKPGKAPKLLIYNTDTLHTGVPSRFSGSGSGTDYTLTISSLQPEDFATYFCQHYFHYPRTFGQGTKVEIKRTVAAPSVFIFPPDIQMTQSPSSLSASVGDRVTITCRASQDISQYLNWYQQKPGKAPKLLIYYTSRLQSGVPSRFSGSGSGTDFTLTISSLQPEDFATYFCQQGNTWPPTFGQGTKLEIKR
C-Terminal VD huTNFα Neutralization Assay IC50 [1]: 0.09 nM
N-Terminal VD NGF Neutralization Assay IC50 (Recombinant Human β-NGF): 11 pM

B11: DVD2813 (bispecific antibody, IgG1)
VH: EVQLVQSGAEVKKPGASVKVSCKASGYTFANYGIIWVRQAPGQGLEWMGWINTYTGKPTYAQKFQGRVTMTTDTSTSTAYMELSSLRSEDTAVYYCARKLFTTMDVTDNAMDYWGQGTTVTVSSGGGGSGGGGSEVQLVESGGGLVQPGGSLRLSCAASGFSLTNNNVNWVRQAPGKGLEWVGGVWAGGATDYNSALKSRFTISRDNSKNTAYLQMNSLRAEDTAVYYCARDGGYSSSTLYAMDAWGQGTLVTVSS
VL: DIQMTQSPSSLSASVGDRVTITCRASQDISQYLNWYQQKPGKAPKLLIYYTSRLQSGVPSRFSGSGSGTDFTLTISSLQPEDFATYFCQQGNTWPPTFGQGTKLEIKRGGSGGGGSGDIQMTQSPSSLSASVGDRVTITCRASEDIYNALAWYQQKPGKAPKLLIYNTDTLHTGVPSRFSGSGSGTDYTLTISSLQPEDFATYFCQHYFHYPRTFGQGTKVEIKR
N-Terminal VD huTNFα Neutralization Assay IC50 [1]: 0.016 nM
C-Terminal VD NGF Neutralization Assay IC50 (Recombinant Human β-NGF): 7.46 nM

B12: DVD3038 (bispecific antibody, IgG1)
VH: B11 VH with A30N, T102N, M104V, D105A
VL: B11 VL with S30E, Q31N, W94Q
N-Terminal VD huTNFα Neutralization Assay IC50 [1]: 0.002 nM
C-Terminal VD NGF Neutralization Assay IC50 (Recombinant Human β-NGF): 0.093 nM
